Read-outs that look alike come from different tables or passages of the source.

The target of assay [1] is T1, human CD3 on T-cell lines (CD3-expressing Jurkat cells; HUT78 cells) (human, UniProt P07766 23-207).
T1 construct: On cells it stands in the CD3/TCR complex
Description: flow cytometry; signal on CD3+ Jurkat over CD3- Jurkat RT3-T3.5 cells. As to the method:
A high-throughput primary screen was performed to rapidly assess cell binding of antibodies produced in small-scale (60 μL) cell-free reactions. In this screen, four components are combined in equal volumes to a final volume of 100 μL/well in a U-bottom 96-well plate (Greiner Cat #650201) or flat bottom 384 well plate (Greiner Cat #781201). […] Plates are then incubated on ice for one hour. Cells are pelleted by spinning at 1500×g for 5 minutes and resuspended in assay buffer. High-throughput flow cytometry is then performed on resuspended cells on a FACS instrument (BD Biosciences FACS Canto II or BD Biosciences LSR II) and data is analyzed with FlowJo software. Antibody binding is assessed by the proportional level of secondary antibody signal (presumably due to binding to our antibody of interest) on Jurkat CD3-positive cells compared to the signal on Jurkat RT3.T3.5 CD3-negative cells.
Background: In flow cytometry, cells or beads pass a laser one at a time.

Assay [2] has as its target T1, human CD3 on T-cell lines …. Description: flow cytometry, HUT78 cells.
Assay [3] has the same target. Nature of the assay: flow cytometry, HUT78 cells. The source holds these as a separate data set.
In assay [4] the target is T2, human CD3 epsilon (Acro Cat #CDE-H5223) (human, UniProt P07766 23-126).
T2 construct: Bought recombinant protein; also called rhCD3E
T2 sequence (P07766 23-126 limits assumed): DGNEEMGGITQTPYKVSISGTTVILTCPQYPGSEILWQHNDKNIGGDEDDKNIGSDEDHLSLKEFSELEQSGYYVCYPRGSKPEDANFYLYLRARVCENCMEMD
Nature of the assay: SPR (Biacore), antibody captured, human CD3 epsilon analyte. As to the method: Anti-Fab or anti-Fc polyclonal antibodies were immobilized onto a CM5 chip (GE Life Sciences) using amine coupling chemistry (from Amine Coupling Kit, GE Life Sciences). The immobilization steps were carried out at a flow rate of 25 μl/min in 1×HBS-EP+ buffer (GE Life Sciences; 10× Stock diluted before use). The sensor surfaces were activated for 7 min with a mixture of NHS (0.05 M) and EDC (0.2 M). The Anti-Fab or Anti-Fc antibodies were injected over all 4 flow cells at a concentration of 25 μg/mL in 10 mM sodium acetate, pH 4.5, for 7 min. Ethanolamine (1 M, pH 8.5) was injected for 7 min to block any remaining activated groups.
Off-rate and kinetic binding experiments were performed at 25° C. using 1×HBS-EP+ buffer. Test and control antibodies were injected over the anti-Fab or anti-Fc surface at concentrations of 5-10 μg/mL for 12 seconds at a flow rate of 10 μL/min on flow cells 2, 3 and 4, followed by a buffer wash for 30 seconds at the same flow rate. […] After capturing ligand (antibody) on the anti-Fc or anti-Fab surface, the analyte (human CD3 epsilon, Acro Cat #CDE-H5223) was bound for 180 seconds, followed by a 600 second dissociation phase at a flow rate of 50 μL/min. Between each ligand capture and analyte binding cycle, regeneration was carried out using two injections of 10 mM Glycine pH 2.0 for 30 seconds at 30 μL/min, followed by a 30 second buffer wash step.
The data was fit with the Biacore T200 Evaluation software, using a 1-1 Langmuir binding model. KD (affinity, nM) was determined as a ratio of the kinetic rate constants calculated from the fits of the association and dissociation phases.

For assay [5], the target named is T3, cynomolgus CD3 epsilon (cynomolgus monkey, UniProt Q95LI5 22-117, limits assumed).
T3 construct: Recombinant protein; also called cyno CD3E
T3 sequence: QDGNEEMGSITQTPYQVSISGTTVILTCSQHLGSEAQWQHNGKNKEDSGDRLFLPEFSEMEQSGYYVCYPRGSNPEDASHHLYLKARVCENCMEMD
Nature of the assay: SPR (Biacore), antibody captured, cynomolgus CD3 epsilon analyte. For orientation: Surface plasmon resonance follows binding to a sensor surface in real time, without labels.

Assay [6] has as its target T2, human CD3 epsilon (Acro Cat #CDE-H5223). Nature of the assay: SPR (Biacore), antibody captured, human CD3 epsilon analyte. This is another data set of the same source.
The target is the same in assay [7]. Described as above. This is another data set of the same source.
Assay [8] addresses T3, cynomolgus CD3 epsilon. Description: SPR (Biacore), antibody captured, cynomolgus CD3 epsilon analyte. The source holds these as a separate data set.
Assay [9] addresses T1, human CD3 on T-cell lines …. Nature of the assay: flow cytometry, HUT78 cells. The source holds these as a separate data set.
Assay [10] addresses T2, human CD3 epsilon (Acro Cat #CDE-H5223). Nature of the assay: ELISA, coated antigen.
The target of assay [11] is T3, cynomolgus CD3 epsilon. Description: ELISA, coated antigen.
The target of assay [12] is CD3-GE. Nature of the assay: ELISA, coated antigen. In general terms: ELISA stands for enzyme-linked immunosorbent assay.

T1 sequence (P07766 23-207 limits assumed): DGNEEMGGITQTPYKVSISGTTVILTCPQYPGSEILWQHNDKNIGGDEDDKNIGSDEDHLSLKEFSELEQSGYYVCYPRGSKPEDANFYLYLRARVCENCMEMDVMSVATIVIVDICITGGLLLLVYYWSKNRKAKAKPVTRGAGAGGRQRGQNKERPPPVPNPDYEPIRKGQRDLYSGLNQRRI

B1: SMP1913-F03 (antibody, V domains shown)
VH: not shown
VL: QSAVTQPRSVSGSPGQSVTISCGSSTGAVTSGYYPNWYQQHPGKAPKGMIGGTKFLAPGVPDRFSGSLLGNTASLTISGLQAEDEADYYCALWYSNRWVFGGGTQLTVTG
notes: human IgG1, lambda; also called SP34-Hc + SP34-Lc2
As to B1, the “FACS S/N (Jurkat/Jurkat RT3-T3.5 binding)” value in assay [1] was determined as 1.

B2: SMP1913-F08 (antibody, V domains shown)
VH: not shown
VL: QSAVTQPRSVSGSPGQSVTISCGSSTGAVTSGYYPNWYQQHPGKAPKGMIGGTKFLAPGVPDRFSGSLLGNTASLTISGLQAEDEADYYCALWYSNRWVFGGGTQLTVTG
notes: human IgG1, lambda; also called hSP34-Hc1 + SP34-Lc2
As to B2, in assay [1], the “FACS S/N (Jurkat/Jurkat RT3-T3.5 binding)” value is 0.9.

B3: SMP1913-F10 (antibody, V domains shown)
VH: not shown
VL: QTVVTQEPSFSVSPGGTVTLTCGSSTGAVTSGYYPNWYQQTPGQAPRGLIGGTKFLAPGVPDRFSGSLLGNKAALTITGAQADDESDYYCALWYSNRWVFGGGTQLTVTG
notes: human IgG1, lambda; also called hSP34-Hc1 + SP34-Lc4
B3: the “FACS S/N (Jurkat/Jurkat RT3-T3.5 binding)” value in assay [1] is 1.

B4: SMP1913-G04 (antibody, human IgG1, lambda, V domains shown)
VH: EVQLLESGGGLVQPGGSLRLSCAASGFTFNKYAMNWVRQAPGKGLEWVARIRSKYNNYATYYADSVKDRFTISRDDSKNTAYLQMNSLRAEDTAVYYCVRHGNFGNSYISYWAYWGQGTLVTVSS
VL: QTVVTQEPSFSVSPGGTVTLTCGSSTGAVTSGYYPNWYQQTPGQAPRGLIGGTKFLAPGVPDRFSGSLLGNKAALTITGAQADDESDYYCALWYSNRWVFGGGTQLTVTG
notes: human IgG1, lambda; also called hSP34-Hc2 + SP34-Lc4
Turning to B4, in [1], the “FACS S/N (Jurkat/Jurkat RT3-T3.5 binding)” value worked out at 1.

B5: SMP1913-F05 (antibody, V domains shown)
VH: not shown
VL: QTVVTQEPSFSVSPGGTVTLTCGSSTGAVTSGYYPNWYQQTPGQAPRGLIGGTKFLAPGVPDRFSGSLLGNKAALTITGAQADDESDYYCALWYSNRWVFGGGTQLTVTG
notes: human IgG1, lambda; also called SP34-Hc + SP34-Lc4
For B5, in assay [1], the “FACS S/N (Jurkat/Jurkat RT3-T3.5 binding)” value turned out to be 0.9.

B6: SRP2037-B10 (antibody, V domains shown)
VH: not shown
VL: QTVVTQEPSLTVSPGGTVTLTCGSSTGAVTSGYYPNWLQQKPGQAPRGLIGGTKFLAPGTPARFSGSLLGGKAALTLSGVQPEDEAEYYCALWYSNRWVFGGGTQLTVTG
notes: human IgG1, lambda; also called 2037-B10 WT; 2037-B10 wt LC (lambda)
One may read the Kd as the concentration at which binding is half-saturated. Low values mean tighter binding, high ones weaker binding. For orientation: koff means a measure of how fast the partners let go of each other. A word on the kon: it is the second-order rate constant of association. A low value points to slower complex formation. Consider B6, for which the “HUT78 Bmax” value in assay [2] is 1890. Moreover, the Kd in assay [2] turned out to be 2.33 nM; in [3], 0.15 nM; in assay [4], 0.596 nM; in [5], 0.418 nM; in assay [6], 2.2 nM; in assay [7] it was 0.465 nM. For the same molecule, the values for the Kd in assay [8] and in assay [9] were 0.416 nM and 0.4 nM, respectively. Further, the “Bmax (MFI)” value in [3] was found to be 1040 MFI; in assay [9] it was 1030 MFI. In addition, the off-rate (koff) came out at 0.000306 s⁻¹ in assay [4]; 0.000344 s⁻¹ in assay [5]; 0.000564 s⁻¹ in assay [6]; 0.000222 s⁻¹ in assay [7]; 0.000368 s⁻¹ in assay [8]. Also, the kon was 514000 M⁻¹ s⁻¹ in assay [4]; 824000 M⁻¹ s⁻¹ in assay [5]; 256000 M⁻¹ s⁻¹ in assay [6]; 478000 M⁻¹ s⁻¹ in [7]; 884000 M⁻¹ s⁻¹ in assay [8].

B7: SMP1913-H02 (antibody, V domains shown)
VH: not shown
VL: QTVVTQEPSLTVSPGGTVTLTCGSSTGAVTSGYYPNWFQQKPGQAPRGLIGGTKFLAPGTPARFSGSLLGGKAALTLSGVQPEDEAEYYCALWYSNRWVFGGGTQLTVTG
notes: human IgG1, lambda; also called hSP34-Hc4 + SP34-Lc3
For B7, in [1], the “FACS S/N (Jurkat/Jurkat RT3-T3.5 binding)” value came out at 1.

B8: SMP1913-G05 (antibody, human IgG1, lambda, V domains shown)
VH: EVQLVESGGGLVQPGRSLRLSCTASGFTFNKYAMNWFRQAPGKGLEWVARIRSKYNNYATYYADSVKDRFTISRDDSKSIAYLQMNSLKTEDTAVYYCVRHGNFGNSYISYWAYWGQGTLVTVSS
VL: not shown
notes: human IgG1, lambda; also called hSP34-Hc3 + SP34-Lc
With B8, the “FACS S/N (Jurkat/Jurkat RT3-T3.5 binding)” value in [1] worked out at 0.8.

B9: SMP1913-G08 (antibody, human IgG1, lambda, V domains shown)
VH: EVQLVESGGGLVQPGRSLRLSCTASGFTFNKYAMNWFRQAPGKGLEWVARIRSKYNNYATYYADSVKDRFTISRDDSKSIAYLQMNSLKTEDTAVYYCVRHGNFGNSYISYWAYWGQGTLVTVSS
VL: QTVVTQEPSLTVSPGGTVTLTCGSSTGAVTSGYYPNWFQQKPGQAPRGLIGGTKFLAPGTPARFSGSLLGGKAALTLSGVQPEDEAEYYCALWYSNRWVFGGGTQLTVTG
notes: human IgG1, lambda; also called hSP34-Hc3 + SP34-Lc3
For the molecule B9, the “FACS S/N (Jurkat/Jurkat RT3-T3.5 binding)” value in [1] worked out at 1.

B10: SMP1913-F04 (antibody, V domains shown)
VH: not shown
VL: QTVVTQEPSLTVSPGGTVTLTCGSSTGAVTSGYYPNWFQQKPGQAPRGLIGGTKFLAPGTPARFSGSLLGGKAALTLSGVQPEDEAEYYCALWYSNRWVFGGGTQLTVTG
notes: human IgG1, lambda; also called SP34-Hc + SP34-Lc3
Regarding B10, the “FACS S/N (Jurkat/Jurkat RT3-T3.5 binding)” value in assay [1] came out at 5.1.

B11: Mouse SP34 (antibody, V domains shown)
VH: EVQLVESGGGLVQPKGSLKLSCAASGFTFNTYAMNWVRQAPGKGLEWVARIRSKYNNYATYYADSVKDRFTISRDDSQSILYLQMNNLKTEDTAMYYCVRHGNFGNSYVSWFAYWGQGTLVTVSA
VL: QAVVTQESALTTSPGETVTLTCRSSTGAVTTSNYANWVQEKPDHLFTGLIGGTNKRAPGVPARFSGSLIGDKAALTITGAQTEDEAIYFCALWYSNLWVFGGGTKLTVL
notes: also called SP34 mouse monoclonal antibody; MSP34
Usually EC50 stands for the concentration needed to bring the measured effect to its halfway point. With B11, the half-maximal effective concentration (EC50) in assay [10] was 251 nM; in assay [11], 352 nM; in [12], 574 nM. The “ELISA Bmax (RLU)” value in assay [10] turned out to be 123000 RLU; in [11] it was 116000 RLU; in assay [12], 3610 RLU.

B12: SMP1913-F02 (antibody, V domains shown)
VH: not shown
VL: EIVVTQSPGTLSLSPGERATLSCGSSTGAVTSGYYPNWYQQKPGQAPRGLIGGTKFLAPGIPDRFSGSLLGTDATLTISRLEPEDFAVYYCALWYSNRWVFGQGTKLEIKR
notes: human IgG1, kappa; also called SP34-Hc + SP34-Lc1
With B12, in assay [1], the “FACS S/N (Jurkat/Jurkat RT3-T3.5 binding)” value came out at 0.9.

B13: SMP1913-F07 (antibody, V domains shown)
VH: not shown
VL: EIVVTQSPGTLSLSPGERATLSCGSSTGAVTSGYYPNWYQQKPGQAPRGLIGGTKFLAPGIPDRFSGSLLGTDATLTISRLEPEDFAVYYCALWYSNRWVFGQGTKLEIKR
notes: human IgG1, kappa; also called hSP34-Hc1 + SP34-Lc1
Consider B13, for which the “FACS S/N (Jurkat/Jurkat RT3-T3.5 binding)” value in assay [1] was 0.8.

B14: 2037-B10-Lc6 (antibody)
heavy: not shown
light: DIQMTQSPSSLSASVGDRVTITCGSSTGAVTSGYYPNWLQQKPGQAPRGLIGGTKFLAPGVPSRFSGSLSGGKATLTISSLQPEDFATYYCALWYSNRWVFGGGTKVEIKRTVAAPSVFIFPPSDEQLKSGTASVVCLLNNFYPREAKVQWKVDNALQSGNSQESVTEQDSKDSTYSLSSTLTLSKADYEKHKVYACEVTHQGLSSPVTKSFNRGEC
notes: human IgG1, kappa; also called Kappa Lc6; Parent HC + Kappa Lc6
Regarding B14, the “HUT78 Bmax” value in assay [2] was determined as 1780. For the same molecule, the Kd stood at 1.6 nM in assay [2]; 0.648 nM in [4]; 0.56 nM in [5]; 1.96 nM in assay [6]; 0.413 nM in assay [8]; 0.8 nM in assay [9]. The off-rate constant (koff) in [4] amounted to 0.000278 s⁻¹; in assay [5] it was 0.000375 s⁻¹; in assay [6], 0.000479 s⁻¹; in [8] it was 0.000311 s⁻¹. The kon in assay [4] amounted to 430000 M⁻¹ s⁻¹; in [5], 670000 M⁻¹ s⁻¹; in assay [6], 244000 M⁻¹ s⁻¹; in assay [8], 753000 M⁻¹ s⁻¹. The “Bmax (MFI)” value in [9] amounted to 1320 MFI.

For the origin of these results see US20240124585A1 (SUTRO BIOPHARMA, published 2024).
